Results from the nanobody polyreactivity screen of Harvey et al. (2022).

Test: yeast display, Sf9 membrane polyspecificity reagent, FACS + sequencing; frameworks hold sequencing errors
Method in brief: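 Sorting gates, low and high (top ~1%), were placed on anti-HA fluorescence to track expression and on streptavidin fluorescence to track reagent binding. A clone's polyreactivity label is taken from the gate it came out of. The reagent was 10% biotinylated, detergent-solubilized Sf9 membrane, applied for 1 hour at 4 °C to galactose-induced yeast display cells.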

Row | Sequence | polyreactivity (PSR sort gate)
1 | QVQLVESGGGLVQAGGSLRLSCAASGGTFPPNTMGWSRQAPGKEREFVAASTWRGSSTYYADSVKGRFTISRDKAKNTVYLQMNSLKPEDTAVYYCAARRAYERMGYWGQGTQVTVSS | high polyreactivity
2 | QVQLVESGGGLVQAGGSLRLSCAASGRTLGTNAMGWYRQARGKERELVAAISRTGTSTYYADSVKGRFTISRDNAKNTVYLQMNSLKPEDTAVYYCAVRVPVSIPPGNYYYWGQGTQVTVSS | high polyreactivity
3 | QVQLVESGGGLVQAGGSLRLSCAASGRIFSYNTVMGWYRQAPGKERELVAAITYSSASTYYADSVKGRFTISRDNAKNTVYLQMNSLKPEDTAVYYCAADAYTPGYRGDYWGQGTQVTVSS | low polyreactivity
4 | QVQLLESGGGLVQAGASLRLSCAASGSIFLPNAMGWSRQAPGKERELVAAISWSGGSTYADSVKGRITISRDNAKNTVYLQMNILKPEDTAFYFCAADDGFTPRDLYVCYDYWGQGTQVTVSS | low polyreactivity
5 | QVQLVDSGGGLVQAGVRLRLSCAASGNIFSAYAMGWYRQAPGKERELVASIDWNGGRTYYADSVKGRFTISRDNAKNTVYLQMNSLKPEDTAVYYCNAGYSYRKYDYLGQGTQVTVSS | high polyreactivity
6 | QVQLVESGGGLVQAGGSLRLSCAASGFTYTYAMGWYIQAPGKERELVAAISKSGGRTYYADSVKGRFTISRDNAKNTVYLQMNSLKPEDTAVYYCAADYSSTYDYWGQGTQVTVSS | high polyreactivity
7 | QVQLVESGGGLVQAGGSLRLSCADSGSTFYVYSMGWYRQAPGKERELVAAITGSTGSTYYADSVKGRFTISRDNAKNTVYLQMNSLKPVDTAVYYCAADFYGVPIIYDYWGQGTQVTLSS | low polyreactivity
8 | QVQLVESGGGLVQAGGSLRLSCAASGSIFGRYVMGWYRQAPGTDRELVAAISGSGTSTYYADSVKGRFTISRDNAKNTVYLQMNSLKPEDTAVYYCAARDIKSSHDYDYWGQGTQVTVSS | low polyreactivity
9 | QVQLVESGGGLVQAGGSLRLSCAPSGSTFTHNALGWYRQAPGKERELVAAINNRGGTTYYADSVKGRFTISRDNAKNTVLLQMNSLKPEDIAVYYCNARYHYGRYGYWGQGTQVTVSS | high polyreactivity
10 | QLQLVESVGGLVQAGGSLRLSCAPSGSTFYWNAMGWYRQAPGKERELVAVITSSGTRTYYADSVKGRFTISRDNAKNTVYLQMNSLKPEDTEVDYCAKRETYTGPNSRYGQWKKVYYWGQGTQVTVSS | low polyreactivity
11 | QVQRVESGGGLVQAGGSLRLSCSASGRTFGHNTMGRYRQAPGKETEFVAAIDFNGGSTYYADSVKGRFTISRDNAQNTVYLQMNSLKPEDTAVYYCAADIYFYYYGSYDYWGQGTQVTVSS | low polyreactivity
12 | QVQLVESGGGIVQAGGSLRLSCAASGNTFYTYAMGWYRQAPGKERELVAAITSGGRTYADSVKGRFTISRDNATNTVYLQMNSLKPEDTAVYYCAADFPGFYYVYPGDYWGQGTQVTVSS | low polyreactivity
13 | QVQLVESGGGLVQAGGSLRLSCAASGRIFSGYAIGWYRQAPGKERELVAAITSGGSTNYADSVKGRFTISRDNAKNTVYLQMNSLKPEDTAVYYCAADYREVSTTAYYYWGQGTQVTVSS | low polyreactivity
14 | QVQLVESGGGLVQAGGSLRLSCAASGNTLYQYAMGWYRQAPGKERELVASITWSGSSTYYADSVKGRFTISRDNAKNTVYVQMNSLKPEDPAVYYCAAYGYHRDYLYDYWGQGTQVTVSS | low polyreactivity
15 | QVQLVESGGGLVQAGGSLRLSCAASGRTFDGYMGWYRQAPGKERELVAAISYDTGSTYADSVKGRFTISRDNAKNTVYLQMNSLKPEDTAVYYCYGYPYQTLYGYWGQGTQVTVSS | low polyreactivity
16 | QVQLVESGGGLVQAGGSLRLSCAASGLTFHYYAMGWYRQAPGKERELVAAITATYYADSVKGRFTISRDNAKNTVYLQMNSLKPEDTAVYYCNAFLYPKQPLSPPDPTFEGGYWGQGTQVTVSS | low polyreactivity
17 | QLQLQESGGGLVQAGGSLRLTCAASGYIFPTAIMRWYRQAPGTERKLVAASNPGSNTYYADSVKGRFTFSLDNAKNTVYLQMNSLTPEDAAVYSCAVSIWLDGTLDFWGQGTQVTVSS | low polyreactivity
18 | QVHLVESGGGLVQAGGSLRLSCAASGFTFRRNAMGWYRQAPGKERELVAAITRSGGVTYYADSVKGRFTISRDNAKNTVYLQMNSMKPEDTAVYYCATQARLYGGYDRYAGSYDYWGQGTQVTVSS | high polyreactivity
19 | QVQLVESGGGLVQAGGSLRLSCAASGSTLASYAMGWYKQAPGKERELVAAISRGGGSTFYADSVKGRFTISRDNAKNTVYLQMNSLKPEDTAVYYCAAFGRYYYIYDYWGQGTQVTVSS | high polyreactivity
20 | QVQLVESGGGLVQAGGSLRLSCAASGRTFTNNAMGWYRQAPGKERELVAAIRWSGGYTYYADSVKGRFTISRDNAKNTVYLQMNSQKPEDTAVYYCAKGYGYVEAVIVQYDYWGQGSQVTVSS | low polyreactivity
21 | QLQLVESGGGLVQAGGSLRLSCAASGSTFSYNAMGWYRQAPWKERELVAAISGSGGTTYYADSVKVRVTISRDNAKNTVYLQMNSLKPEDTAVYYCAARPFRSWRYDYWGQGSQVTVSS | low polyreactivity

Row | Sequence | polyreactivity (PSR sort gate)
22 | QVQLVESGGGLVQAGGSLRLSCAASGGTFERNAMGWYIQAPGKERELVAGMSKISGRTYYADSVKGRFTISRDNAKNTVYLQMNCLKPEDTAVYYCNKVSRSSYGYWGQGTQVTVSS | high polyreactivity
23 | QVQLVESGGGLVQAGGSLRLSCAASGSIFPGYTMGWYRQAPGKERELVAAISWSDGSTYYADSVKGRFTISRDNAKNTVYLQMNSLKPDDTAVYYCNRDYRGPYYYWGQGTQVTVSS | high polyreactivity
24 | QVQLVESGGGLVQAGGSLRLSCAASGSTFYSNSMGWYRQAPGKERELVAAIDWGGGSTYYADSVKGRFTISRDNETNTVYLQMNSLKPEDTAVYYCAKKYYKVHKFDYWGQGNQVTVSS | low polyreactivity
25 | QVQLVESGGGLVQEGGSLRLSCAACGRTFSWYAMGWYRQAPGKDRELVAAITSGGSTYYADSVKGRFTISRDNAMNTVYLQMNSLKPEDTAVYYCAAQAYVEGVYRYDYWGQGTQVTVSS | low polyreactivity
26 | QVQLEESGGGLVQAGGSLRLSCAASGTTFGINCYGMYRQAPGKERELVAGISVSGGSTYYADSVNGRFTISRDNAYNTVYLQMNSLKPEDTAVYYCAAKWFNRDFDYWGQGTQVTVSS | low polyreactivity
27 | QVQLVESGGGLVQAGGSLRLICAASGITFTGYAMGWYRQAPGKERELVAAITRRGGRTYYADSVKGRFTISRDNAKNTVYLQMNSLKPEDTAVYYCARDNGSPYHYYYWGQGTQVTVSS | high polyreactivity
28 | QVQLVESGGGLVQAGGSLRLSCAASGSIFSTNAMGWYRQAPGKERELVAAITYSGSLTYYADSVKGRFTISRDNAKNTVYLQMNSLKPEDTAVYYCAADTSWYSWWFDYWGQGTQVTVSS | low polyreactivity
29 | QVQLVESGGGLVQAGGSLRLSCADSGRIFNPYAMGWYRQAPGKERELVAGISWGGGSTRYADSVKGRFTISRDNAKNTVYLQMNSLKPVDTAVYYCNSGSYYKRFDYWGKGTQVTVSS | high polyreactivity
30 | QVQLVESGGGLVQAGGSLRLSCAASGGTLRYYVMGWYRQAPGKERELVAAISWSGDSTYYADSVKGRFTISRDNAKNTVYLEMNSLKPDDTAVYYCAATYYVTYYYGQANHGYDYWGPGTQVTVSS | low polyreactivity
31 | QVQLVESGGGLVHAGGSLRLSCAASGGIFGYYTMGWYRQAPGKERELVAAITWRGSTYYADSVKGRFTISRDNAKNTVYLQMNSLKPEDTAVYYCAARYYSPYGYWGQGTQVTVSS | high polyreactivity
32 | QVQLVESGGGLVQAGGSLRLSCAASGSTFESNAMGWSRPAPGKEREFVAAITSGGSTDYADSVKGRFKISRDNAKNTVYLQMNSLKPEDTAVYYCAKGTFDLHYRKRYNYWGQGTQVTVSS | low polyreactivity
33 | QVQLVESGGGLVQAGGSLRLSCAASGRIFDFNAMGWYRQAPGKERELVAAITWSGTSTYYADSVKGRFTISRDNAKNTVYLQMNSLKPEDTAVYYCAVDYSPWWAFSYSDYYYWGQGTQVTVSS | high polyreactivity
34 | QVQLQESGGRLVQAGGSLRLSCAASGNIFPTVSMGWYRQAPGKDREFVVTIDPGSNTYYADSAKGRFTISRDNAQNTVYLQMNSPKPEDTAVYYCAVVFADWATYGYWGQGTQVTVSS | high polyreactivity
35 | QVQLVESGGGLVQAGGSLRLSCAASGSIYRYYAMGWYRQAPGKETELVAAIRVSTGSTSYADSVKGRFTISRDNAKNTVYLQMNSLKPEDTAFYYCNAGVGYFVGTYYGFLPYDYWGQGTQVTVSS | high polyreactivity
36 | QVQLVESGGGLVQAGGSLSLSCAASGSSFSLYTMGWYRQAPGKERDLVASISQSGGSTYYADSVKGRFTISRDNAKNTVYLQMNSLKPEDTAVYFWNAKGRSGTLTLYYYWGQGTQVTVSS | low polyreactivity
37 | QVQLVESGGGLVQAGGSLRLSCAASGIISYPTVMGWYRQAPGKERELVPAITSGGRTKYADSVKGRFTISRDNAKNTVYLQMNSLKPEDTAVYYCAARTVYWQSWSQFWGYNYWGQGTQVTVSS | low polyreactivity
38 | QVQLVESGGGLVQAGGSLRLSCAASGSIFVYYSMGWYRQAPGKERELVATISSGASTYYADSVKGRFTISRDNAKNTVYLQMNSLKPEDTAVYYCNADNLAGSVEHDYWGQGTQVTVSS | low polyreactivity
39 | QVQLVESGGGLVQEGGSLRLSCAASGSHFTRYVMGWYRPAPGKERELVAAITTGGSTYYADSVKGRFTISLDNAKNTVYLQMNSLKPEDTAVYYCAADRRTVSYKYNYWGQGTQVTVSS | high polyreactivity
40 | QVQLVESGGGLVQAGGSLRLRCAASGSTYVYAIGWYRQAPGKDRELVASISWSDSSTYYADSVKGRFTISRDNAKNTVYLQMNSLKPEETAFYYCNADQGTRDSDYWGQGTQVTVSS | low polyreactivity
41 | QVQLVESGGGLVQAGGSLRLSCAASGSIFKAYAMGWYRQAPGKERELVAAISTSDGSTYYADSVKGRFTISRDNAKNNVYLLMNSLKPEDTAVYYCATEYDYWDDSYDYWGQGTQVTVSS | low polyreactivity
